Test results reported in the DeepSol protein solubility set.

Assay: soluble on expression in E. coli; label from the status in PepcDB or PDB records

## AEKRIGLMLFGKGNIGSRWLELFAREQTTLSARTGFEFILAGVVDSKRSLLNYDGLDASRALAFFNDEAVEQDEESLFLWMRAHPYDDLVVLDVTASEQLADQYLDFASHGFHVISANKLAGASSSDKYRQIHDAFEKTGRHWLYNATVGAGLPVNHTVRDLIDSGDTILGLSGIFSGTLSWLFLQ
  soluble on expression in E. coli: not soluble

## MLRIIVIGTTGSGKTTFARALAQRLGLPHGEQDAWNHEANWQMAPLGRFRARVDTFTSQPAWVMDGNYGKARDLGWARADTLIWLDFPAWLVYSRLVRRTLWRVLTQQELWNGNRETWRGALLDPEGPLRWFWKTHWRRRQETPALAAEFPHLRLVRLRSPGEARRFLAAVGRGHPTALEHHHHHH
  soluble on expression in E. coli: not soluble

## LYIHGFASSGESHKAKALKAGLAPYEVMTPTLSYVPSLAFQTLRQLVDESLAQKEELTLIGASLGGYYATQLSWLYNLKAILINPAITPYETL
  soluble on expression in E. coli: not soluble

## MAPCLENVACVNLSAMPPAPPSPQPVSHKQAATLCRQGRTCALKSGSNESGGSVTSTYTSYRLISQDIGKSLERVSKQPDVARETEYYREKIGSVKSIDDFMADTRLYNYALKAHGLEDMAYAKAFIRKVLTEGASDKNAFANKLSDNRYAELAKSLDFAGLGAAATATEAAKSGVIGNYARQTLEQEAGDDNNGVRLALYFERKAPTIKSGLDFLADDALAQVFRTTFNLPDAFAAADVDKQAALIEKSINIKDLQDPEKVGKLLERFTIMWEMQNPSTTYDPLAVFGSSSGYGISPDLLISINSLKLGGKAAALEHHHHHH
  soluble on expression in E. coli: soluble

## SLCIDRQLYSAVQNSNRQKHQPLNSYVSLSDENESDHLEGSWSEDPEALIIDQESTRTLEREITKVLSPMENKVLDYYLRGYGYVKIAEIMGKTPKSIDNALQRIRGKIRNFSAPVQK
  soluble on expression in E. coli: not soluble

## GACDNDTEPGGTAVEKMAGDWWVTVNAFIDGKEVEDPFGAGHLQMSTYNTASNSETEMWLDDLGNFWEYKLKVNVNYAARTFSTTGFVDNVTYESKVKITDGKVLEKAATTPSGMPADSIVYMVQFDDDEDGLTYKVSGFRRTGFPADDF
  soluble on expression in E. coli: soluble

## MRGKAWMLTAVALTGLGLAQIRADGSSTVYPITQAVAEEFVTRNPQVRISVAFSGTGAGFQKFCRGETDVQNASRPIRKSELEACQKAGIQFIEIPVAYDALSILVNRQNTWAQCLTTAQLKSIWEPNAKVNYWKDLNPAWPNRRIVLFGAGTDSGTFDYFTEAIMGRAGSIRKDYFPSEDDNVIMRGVTGNPYAMAFVGFAYYEENKDKVKAVAIDHGKGCVLPSRETVLDGTYQPLSRPLFIYVNVKSLDRPEVQAFVDFYLSPAARRAIRSTGYVELPDEAYRIGQGLVARKKTGSFFTDLPPGTPLAKFIEELRKEVQ
  soluble on expression in E. coli: soluble

## TFGPVFEDQPLSVLFPEESTEEQVLLACRARASPPATYRWKMNGTEMKLEPGSRHQLVGGNLVIMNPTKAQDAGVYQCLASNPVGTVVSREAILRFGFLQEFSKEERDPVKAHEGWGVMLPCNPPAHYPGLSYRWLLNEFPNFIPTDGRHFVSQTTGNLYIARTNASDLGNYSCLATSHMDFSTKSVFSKFAQLNLAAEDTRLFAPSIKARFPAETYALVGQQVTLECFAFGNPVPRIKWRKVDGSLSPQWTTAEPTLQIPSVSFEDEGTYECEAENSKGRDTVQGRIIVQAQPEWLKVISDTEADIGSNLRWGCAAAGKPRPTVRWLRNGEPLASQNRVEVLAGDLRFSKLSLEDSGMYQCVAENKHGTIYASAELAVQA
  soluble on expression in E. coli: soluble

## METKTVAITMGDPAGIGPEIIVKALSEDGLNGAPLVVIGCLATLKRLQAKGITPNVELRAIERVAEARFAPGIIHVIDEPLAQPEALEAGKVQAQAGDLAYRCVKRATELALRGDVQAIATAPLNKEALHLAGHNYPGHTELLATLTHSRDYAMVLYTDKLKVIHVSTHIALRKFLDTLSTARVETVIGIADTFLKRVGYVKPRIAVAGVNPHAGENGLFGDEETRILTPAITDARAKGMDVYGPCPPDTVFLQAYEGQYDMVVAMYHDQGHIPLKLLGFYDGVNITAGLPFIRTSADHGTAFDIAWTGKAKSESMAVSIKLAMQLA
  soluble on expression in E. coli: soluble

## MSLYQSIVFIARNVVNSITRILHDHPTNSSLITQTYFITPNHSGKNISFHLFHDFKYCSADTRHYSQLIIFPVKENSRPTQVSRPLGGRPHESVFLPKFTRTQNSYCLTRLDRMGFPPPRKASTIMHFFQDDRTVMCSPKDGIPVSSFHIMICFLERRKGN
  soluble on expression in E. coli: soluble

## MGSDKIHHHHHHMNRMNDALELVKKLRTFLPAESVLHETEDVRPYECDGLSAYRQTPMIVALPRTEDEVAGILKICDALKIPVVARGAGTGLSGGALPHPQGVLLSLAKLKNILEIDPAARTARVQPGVRNLAISEAAAPYGLYYAPDPSSQIACSIGGNVAENSGGVHCLKYGLTVHNILKLRVLTIEGELLEMGADGLDAPGYDLLALMTGSEGMLGIVTEVTVKLTPRPEKAQVVLASFDDIRDAGNAVANVIGAGIIPAGMEMMDKITTGAVEEYVHAGYNVEAAAILLCESDGAEEEVAEEIERINEIMRQSGATEVRISRDEAERARFWAGRKAAFPAAGRVSPDYYCMDGTIPRKNLASVLTGIEALSAEYGLRCMNVFHAGDGNLHPLILYDANHPGELELTEEFGAKILRMCIEAGGTITGEHGVGIEKINQMCSQFKTGELEMFHAVKAAFDPASLLNPGKAIPTLRRCAEQGAMHVHRGKEKFPELPRF
  soluble on expression in E. coli: not soluble

## GEIWVYIDHIGEKPNRASFEIMGEARRIADLMDTSLSAVMVGGEATKSLIEETFEYGADKVYFVETKGFDRYDNEVYTRALAKVIKKYKPEAVFFPGTKNARELASTTAIEVDTGLIADCTNFDVDDKGVLLSTRPDFGGKEMSTIICPRHRPVMVTVRAGVFMPLPRVPGRKGELAREEIDDLFTRLKVLDYRVIEKRNI
  soluble on expression in E. coli: not soluble

## MGSDKIHHHHHHMKKKDMNKQVKIQDAVAAIILAEGPAGVSTTKVAKRVGIAQSNVYLYFKNKQALIDSVYARETNRILSTTDLDRLSDSTIDVTTRIRLYVQQVYDYSLANPDSLTIIQQIKALNGQGMTISAADADPNNIVANLLTAAIDAKVIKQLPVSLHMGVVFSTIHTHTTNISKGRYAQDQYTFGDIFQMIWDAMKQD
  soluble on expression in E. coli: not soluble

## AKVVCVLYDDPINGYPTSYARDDLPRIDKYPDGQTLPTPKAIDFTPGALLGSVSGELGLRKYLESQGHELVVTSSKDGPDSELEKHLHDAEVIISQPFWPAYLTAERIAKAPKLKLALTAGIGSDHVDLQAAIDNNITVAEVTYCNSNSVAEHVVMMVLGLVRNYIPSHDWARNGGWNIADCVARSYDVEGMHVGTVAAGRIGLRVLRLLAPFDMHLHYTDRHRLPEAVEKELNLTWHATREDMYGACDVVTLNCPLHPETEHMINDETLKLFKRGAYLVNTARGKLCDRDAIVRALESGRLAGYAGDVWFPQPAPNDHPWRTMPHNGMTPHISGTSLSAQTRYAAGTREILECYFEGRPIRDEYLIVQGGGLAGVGAHSYSKGNATGGSEEAAKYEKLDA
  soluble on expression in E. coli: soluble

## GPGSMMVLDIQLFRDETGANIIRESQRRRFADPDIVDAIIEADKKWRRTQFLTEASKKLINICSKAVGAKKKAKEADGDTSEIPPQVKEAYENGTLKGEQVEQLCVLQLKQLSKDLSDQVAGLAKEAQQLEEERDKLMLNVGNILHESVPIAQDEETGNTVVRTFGNTTKRAKLNHVSIMERLGMMDTSKAVTSMAGGRSYVLKGGLVQLQVALVSYSLDFLVKRGYTPFYPPFFLNRDVMGEVAQLSQFDEELYQVSGDGDKKYLIATSEMPIAAYHRGRWFTELKEPLKYAGMSTCFRKEAGAHGRDTLGIFRVHQFDKIEQFVVCSPRQEESWRHLEDMITTSEEFNKSLGLPYRVVNICSGALNNAAAKKYDLEAWFPASGAFRELVSCSNCTDYQSQSVNCRYGPNLRGTAAQNVKEYCHMLNGTLCAITRTMCCICENYQTEEGVVIPDVLRPYMMGIEMIRFENNAQAEGTTPDKGE
  soluble on expression in E. coli: soluble

## MRKNISENNGKRPGSVKSRFLVSAFAVFLVAYSQTGRSSEEVLEQYKSLFAQQQKEFEKQRQIIIEQGKEIEKLKSRLDSLITTQPTDRSPASNVAGKDGQRPPQVSSPSTPKTVVAGPVGKKNDQVQTRTVPGNLPAGPVGQAPPKQDEKPRPPEMPRLSDAVGGVLTRKGKIVVEPALEYAFTDSNRIFLDAFTFLPAIAIGLIDVRQVDQHSLMASIGARYGVTDRLEVEARVPYRARFDEQRSRPVSIGAGIDETFNASGNGLGDIEFAARYQLNSGAGGWPILVGNMRATVPTGKGPFDIKYAQAQGVPGAVFPTEVPTGSGFFSFEPSVTALYATDPAVFFANLAYNYNMGTTEKALDGSGDKFKVDPGYAVGMTFGMGFGINERSSFNIGYGHRHIFNTKINNRTLKGSQLDIGQLLLGYAFKYSQQTTLNFSIAIGTTDDAQDVRLSFRVPMTFLEHHHHHH
  soluble on expression in E. coli: soluble

## MGSDKIHHHHHHMNVFPADRIEAMHDAGLDILERLGIKVLLPEARAIFATAGAMVKDDMVYIGRDIVEASLASAPRRIEGRAGAPERDVVLELGSLVFQPGAGAPHATDEVRGRRPGCARDFKELIQLTNHFDVFHMLPPLVEPQDIATNIRHYFTLECQLTESNKFPFIFSRGTPQVTESFEMLRDFRGLSDAEFEAEPRCYTIINTNSPRTLDVPMAQGLIDFARMGQISIVTPFTLMGAMAPITVAGAITLSHAEALAAITLTQLTNPGAPVCYGTFTSNVDMKSGAPAFGTPSHFQASLAAGQLARHIGLPWRSAAGSAANLNDVQAANENQFGLWGCLMAGATVVIHSAGWLEGGLSISYEKLITDAEVLNMVAELCAGAQASDAEIGLDAIEDTAPSGHFFATAQTMARYQTEFYEPIIHDYANFGTWTERGSKDASTRARDVWQGILADPKSPTVNGDRLSALQDDIARRTQAGGAYPES
  soluble on expression in E. coli: not soluble

## MTDEKKDDRPVYQAACHCGTVRFELRLTDGLRTARRCNCSLCRMRGAVAVSANLGDITVTQGEEALTLYQFHTREAKHYFCSRCGIYTFHQRRSAPDQYGVNVACIEGMSPFDFADVPVSEGRVHPKDRVDGGVGVAGWLRYEGNPEWGQGLEHHHHHH
  soluble on expression in E. coli: soluble

## MDPDLWEETGHNSELLLRLLPAARLTAVARDPQYTGRLEQVWQQYRTYLGAPVNRGNLPGLESNQVIAYFSAEFGLSEALPIYAGGLGFLAGDHLKSASDLGLPLVGVGLLYREGYFRQRLDRRGQQREVYSRYDFYQLPLELERRADGSPLEVQVNFPDPDRQVRARVWRARVGRLNLYLLDSDCPGNLEADRLITDRLYGGDLEKRIQQEILLGIGGVRALAALGINATIFHLNEGHSAFLGLERIRQLQARYGLDLASARELATCSNIFTTHTPVPAGIDVFPPYLMDKYFTEYYQSLGLSRHEFLALGRQDPNNQQEPFNMAVLALRLSAWANGVSQLHGQTARRMWQVIWPGVPVAEIPIGAITNGVHTTSWVGEKMAALYDRYLGTAWRELEHHHHHH
  soluble on expression in E. coli: not soluble

## MGSDKIHHHHHHMSDVNASLVDGKKILVTGGAGFIGCAISERLAARASRYVVMDNLHPQIHASAVRPGALHEKAELVVADVTDAGAWDALLSDFQPEIIIHLAAETGTGQSLTEASRHALVNVVGTTRLTDALVKHGIVVEHILLTSSRAVYGEGAWQKDDGTIVYPGQRGRAQLEAAQWDFPGMTMLPSRADRTEPRPTSVYGATKLAQEHVLRAWSLATKTPLSILRLQNVYGPGQSLTNSYTGIVALFSRLAREKKVIPLYEDGNVTRDFVSIDDVADAIVATLVRTPEALSLFDIGSGQATSILDMARIIAAHYGAPEPQINGAFRDGDVRHAACDLSESLANLGWKPQWSLKRGIGELQTWIAQELDRKN
  soluble on expression in E. coli: not soluble
